According to the supplement of paper PMC9428881:
± gives the standard error.

Experiment: background-corrected fluorescence of 3'-dye-labeled ssDNA relative to brightest sequence (3'-GCGCG) (fraction); higher = brighter dye fluorescence (less quenching)
Summary of the method: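 By light-directed phosphoramidite synthesis, single-stranded DNA ending in a 3' Cy3 or Cy5 dye beside each of 1024 permuted pentamers was built on glass slides. Scanning at 532 or 635 nm took place before and after overnight ethylenediamine/ethanol deprotection. Data are means of 10 features per array over at least 3 syntheses. Fluorescence is corrected for unlabeled-oligo background and scaled to the brightest sequence.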

| Sequence | background-corrected fluorescence (dye: Cy3 (3' terminal)) | background-corrected fluorescence (dye: Cy5 (3' terminal)) |
| --- | --- | --- |
| TTTTTGCAGCATCATCATCATTTTTTTTTTTTTTTTTGGG [GGGTT] | 0.661 ± 0.029 | 0.549 ± 0.029 |
| TTTTTTGCTCATGCTGCGCATTTTTTTTTTTTTTTAGAAT [TAAGA] | 0.59 ± 0.032 | 0.449 ± 0.024 |
| TTTTTTGATGCGCAGCAGCATTTTTTTTTTTTTTTCATTT [TTTAC] | 0.523 ± 0.022 | 0.38 ± 0.032 |
| TTTTTTCAGCAGCATGCTCATTTTTTTTTTTTTTTGTTAG [GATTG] | 0.541 ± 0.019 | 0.438 ± 0.067 |
| TTTTTTGATGCGCAGCATCATTTTTTTTTTTTTTTCATTG [GTTAC] | 0.561 ± 0.029 | 0.363 ± 0.021 |
| TTTTTTGAGCATCATCATGCTTTTTTTTTTTTTTTCTGGA [AGGTC] | 0.69 ± 0.023 | 0.605 ± 0.047 |
| TTTTTTGATCATCAGCATGATTTTTTTTTTTTTTTCGGTC [CTGGC] | 0.506 ± 0.035 | 0.407 ± 0.042 |
| TTTTTGCATCAGCATCATGATTTTTTTTTTTTTTTTGTGC [CGTGT] | 0.494 ± 0.0099 | 0.402 ± 0.027 |
| TTTTTGCATGAGCATCATGCTTTTTTTTTTTTTTTTCTGA [AGTCT] | 0.611 ± 0.018 | 0.56 ± 0.037 |
| TTTTTGCAGCAGCATCATCATTTTTTTTTTTTTTTTTTGG [GGTTT] | 0.612 ± 0.01 | 0.444 ± 0.027 |
| TTTTTTGATGCGCAGCATGATTTTTTTTTTTTTTTCATTC [CTTAC] | 0.398 ± 0.017 | 0.297 ± 0.021 |
| TTTTTTGATCATGCGCAGCATTTTTTTTTTTTTTTCGATT [TTAGC] | 0.602 ± 0.031 | 0.404 ± 0.025 |
| TTTTTTGATGCTCAGCATCATTTTTTTTTTTTTTTCAGTG [GTGAC] | 0.61 ± 0.026 | 0.463 ± 0.025 |
| TTTTTGCATGATGCTGAGCATTTTTTTTTTTTTTTTCACT | 0.447 ± 0.036 | 0.334 ± 0.02 |
| TTTTTGCAGCATGATGCGCATTTTTTTTTTTTTTTTTCAT [TACTT] | 0.519 ± 0.033 | 0.378 ± 0.021 |
| TTTTTGCATGAGCAGCATGCTTTTTTTTTTTTTTTTCTTA [ATTCT] | 0.5004 ± 0.0042 | 0.373 ± 0.022 |
| TTTTTGCAGCATGCGCATGATTTTTTTTTTTTTTTTTATC [CTATT] | 0.473 ± 0.024 | 0.312 ± 0.018 |

| Sequence | background-corrected fluorescence (dye: Cy3 (3' terminal)) | background-corrected fluorescence (dye: Cy5 (3' terminal)) |
| --- | --- | --- |
| TTTTTTCAGCATGCTGCTGATTTTTTTTTTTTTTTGTAAC [CAATG] | 0.441 ± 0.025 | 0.364 ± 0.026 |
| TTTTTTGCTGATGATCATGCTTTTTTTTTTTTTTTACCGA [AGCCA] | 0.601 ± 0.025 | 0.515 ± 0.031 |
| TTTTTTGCGCATGCTGCGCATTTTTTTTTTTTTTTATAAT [TAATA] | 0.567 ± 0.0072 | 0.418 ± 0.026 |
| TTTTTGCATGCGCAGCATCATTTTTTTTTTTTTTTTATTG [GTTAT] | 0.522 ± 0.018 | 0.359 ± 0.021 |
| TTTTTTCATGCTGCTGATGCTTTTTTTTTTTTTTTGAACA [ACAAG] | 0.505 ± 0.013 | 0.394 ± 0.024 |
| TTTTTTGCGCATGCTGCTGCTTTTTTTTTTTTTTTATAAA [AAATA] | 0.567 ± 0.044 | 0.507 ± 0.069 |
| TTTTTTCATCATGCGCAGCATTTTTTTTTTTTTTTGGATT [TTAGG] | 0.584 ± 0.031 | 0.41 ± 0.061 |
| TTTTTTGATGCGCATGCTGATTTTTTTTTTTTTTTCATAC | 0.443 ± 0.024 | 0.314 ± 0.032 |
| TTTTTTCATGCTCATCATCATTTTTTTTTTTTTTTGAGGG [GGGAG] | 0.759 ± 0.02 | 0.553 ± 0.041 |
| TTTTTGCATGCTGCGCATCATTTTTTTTTTTTTTTTAATG [GTAAT] | 0.513 ± 0.02 | 0.363 ± 0.023 |
| TTTTTGCATGATGCTGATGCTTTTTTTTTTTTTTTTCACA [ACACT] | 0.485 ± 0.015 | 0.379 ± 0.034 |
| TTTTTTGAGCATGCGCATGCTTTTTTTTTTTTTTTCTATA [ATATC] | 0.527 ± 0.018 | 0.411 ± 0.023 |
| TTTTTGCATCATGCGCATCATTTTTTTTTTTTTTTTGATG [GTAGT] | 0.53 ± 0.0055 | 0.409 ± 0.037 |
| TTTTTGCAGCATCATGCTCATTTTTTTTTTTTTTTTTGAG [GAGTT] | 0.542 ± 0.0086 | 0.429 ± 0.016 |
| TTTTTTGCGCATGATGAGCATTTTTTTTTTTTTTTATCCT [TCCTA] | 0.447 ± 0.015 | 0.348 ± 0.02 |
| TTTTTTGATGCTGAGCATGCTTTTTTTTTTTTTTTCACTA [ATCAC] | 0.471 ± 0.014 | 0.352 ± 0.025 |
| TTTTTTCATGCTGCGCAGCATTTTTTTTTTTTTTTGAATT [TTAAG] | 0.5465 ± 0.0052 | 0.382 ± 0.03 |
